In paper PMC7857489 one finds loss of full-length MinD (SDS-PAGE, Coomassie) after 3 h with MinD (6 μM), ClpX (1.0 μM), ClpP (1.2 μM) and ATP; no change when ATP or ClpP was omitted, degradation of MinD (6 μM) by ClpX (0.75 μM), ClpP (0.9 μM) with ATP, SDS-PAGE and densitometry over time and rate of degradation of fluorescent MinD (fluorescent peptides released), MinD 0-16 μM, ClpXP 0.8 μM, ATP 8 mM; rate data, which are given here for one substance.

Assay [1] has as its target MinD (E. coli) (UniProt P0AEZ3).
Assay [2] has the same target. The source holds these as a separate data set.
In assay [3] the target is FL-MinD (E. coli) (UniProt P0AEZ3).
Chain of FL-MinD (E. coli) (P0AEZ3 whole entry): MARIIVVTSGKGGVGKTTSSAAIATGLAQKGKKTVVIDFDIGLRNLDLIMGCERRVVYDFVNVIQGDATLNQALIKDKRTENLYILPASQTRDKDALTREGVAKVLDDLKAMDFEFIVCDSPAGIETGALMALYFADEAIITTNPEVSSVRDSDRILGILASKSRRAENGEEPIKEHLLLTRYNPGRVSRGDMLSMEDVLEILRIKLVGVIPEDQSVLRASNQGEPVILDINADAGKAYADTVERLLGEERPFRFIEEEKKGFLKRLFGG

Chain of ClpXP (P0A6H1 whole entry): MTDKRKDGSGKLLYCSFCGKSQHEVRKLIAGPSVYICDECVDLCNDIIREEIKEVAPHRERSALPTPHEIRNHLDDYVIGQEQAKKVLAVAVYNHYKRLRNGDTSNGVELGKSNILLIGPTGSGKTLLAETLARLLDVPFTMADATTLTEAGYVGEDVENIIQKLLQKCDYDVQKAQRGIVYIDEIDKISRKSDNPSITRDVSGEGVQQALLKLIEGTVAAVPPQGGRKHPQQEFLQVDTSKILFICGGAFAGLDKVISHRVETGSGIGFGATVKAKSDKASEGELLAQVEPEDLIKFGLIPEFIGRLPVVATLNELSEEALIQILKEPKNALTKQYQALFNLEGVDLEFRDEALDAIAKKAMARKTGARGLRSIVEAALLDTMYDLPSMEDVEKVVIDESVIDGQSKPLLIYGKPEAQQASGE
Chain of ClpXP (P0A6G7 15-207): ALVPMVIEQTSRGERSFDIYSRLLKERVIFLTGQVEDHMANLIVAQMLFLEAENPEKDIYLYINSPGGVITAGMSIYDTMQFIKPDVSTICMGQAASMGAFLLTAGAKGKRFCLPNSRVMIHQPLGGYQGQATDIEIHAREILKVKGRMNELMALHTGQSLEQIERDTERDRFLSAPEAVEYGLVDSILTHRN
Chain of MinD (E. coli) (P0AEZ3 whole entry): as the sequence (P0AEZ3 whole entry) above

“ClpXP (from UniProt P0A6H1 1-424; P0A6G7 15-207) (complex)”: the loss of full-length MinD (SDS-PAGE, Coomassie) after 3 h with MinD (6 μM), ClpX (1.0 μM), ClpP (1.2 μM) and ATP; no change when ATP or ClpP was omitted in assay [1] was 45.9%. Further, in assay [2], the degradation of MinD (6 μM) by ClpX (0.75 μM), ClpP (0.9 μM) with ATP, SDS-PAGE and densitometry over time was 50%. The rate of degradation of fluorescent MinD (fluorescent peptides released), MinD 0-16 μM, ClpXP 0.8 μM, ATP 8 mM; rate at the plateau in assay [3] came out at 0.08 min⁻¹.
